Source: patent publication US9273320B2, “Method of producing a sweet protein” (NOVOZYMES A/S, priority 2009, dated 2016)

Key:
[1] = Lamphear et al. 2005; cited from earlier work
[2] = system: test taste panel of three persons; experiment: Sucrose replacement in yoghurt drink, sweetness in 23% Cheasy A38; format: in vivo, human
Procedure: A test taste panel of three persons was made to evaluate brazzein sweetness in yoghurt drink. The yoghurt product Cheasy A38 (Arla Foods), which contains 0.1% milk fat, 4.3% milk protein, was diluted to a final conc. of 1% milk protein, with sucrose or a solution of brazzein produced in A. oryzae. […] Thus, at the present condition in 23% Cheasy A38, the brazzein batch is 930 times sweeter than sucrose on weight basis.
Furthermore, the sweetness of brazzein and sucrose were additive as 6% sucrose+75 mg/l brazzein, taste like 12.7%±0.6% (SD) sucrose in 23% Cheasy A38.

[3] = system: test taste panel of six persons; experiment: Sensory evaluation of the sweetness of brazzein compared to sucrose, in 20% skim milk; format: in vivo, human; settings: 50 mg/l brazzein in 20% skim milk
Description: Sweet protein: The term “sweet protein” as used herein refers to a protein having an intense sweet taste which is suitable for sweetening of food, beverage and/or medication products for human consumption. On weight basis, a sweet protein according to the present invention may be at least 100, preferably at least 200, more preferably at least 500, and even more preferably at least 1,000, times sweeter than sucrose, when compared to a 2% solution of sucrose. For purposes of the present invention, comparison of sweetness may be determined by testing human perception of sweetness of the protein against known controls using varied concentrations of the protein being diluted in water or in an aqueous solution which avoid adsorption on surfaces, such as 20% skim milk, e.g., as described in Example 3 of the present application. A test taste panel of six persons was used to evaluate the brazzein sweetness compared to sucrose. The brazzein batch from Example 2 was diluted 30 fold to a final conc. of 50 mg/l with 20% skim milk in order to avoid adsorption on surfaces. The sweetness was estimated using a standard of 0%, 0.68%, 1.37%, 2.74%, 5.48%, 11.0%, 21.9% (w/v) sucrose diluted in 20% (v/v) skim milk. The sweetness of this 50 mg/l brazzein dilution corresponded to an average sweetness of 2.57% (w/v) sucrose±0.55% sucrose (SD). Thus, the brazzein batch is 510 times sweeter than sucrose on weight basis at the present condition. The sweet taste delay of the brazzein was estimated to be 1.5 sec±1.2 sec (SD).

[4] = background statement; cited from earlier work
[5] = background statement; cited from earlier work; remark: listed apart in the source
[6] = system: taste panel of three persons; experiment: pH profile of the sweet taste of brazzein compared to sucrose, in 5 g/l whey protein; format: in vivo, human; settings: 75 mg/l brazzein
Procedure: A taste panel of three persons estimated the pH profile of the sweet taste of brazzein compared to sucrose. 5 g/l whey protein (Lacprodan DI-9224, Arla Foods Ingredients) with 0%, 2%, 4%, 6%, 8%, 10%, 12%, 14% and 16% sucrose or 75 mg/l brazzein was adjusted with H3PO4, Na2HPO4 or NaOH to a final pH of […], 4.0, 5.0, 7.0 and 9.0.

| Molecule | sweetness relative to the form having an N-terminal pyroglutamate [1] | times sweeter than sucrose on weight basis ([2]; 75 mg/l brazzein in 23% Cheasy A38) [times] | sweetness corresponding to sucrose ([2]; 75 mg/l brazzein in 23% Cheasy A38, SD 1%) [% sucrose] | sweetness of brazzein plus sucrose, tastes like sucrose ([2]; 6% sucrose + 75 mg/l brazzein in 23% Cheasy A38, SD 0.6%) [% sucrose] | sweet-taste delay sensation ([2]; in the presence of 6% sucrose, 23% Cheasy A38) | times sweeter than sucrose on weight basis [3] [times] | sweet taste delay ([3]; SD 1.2 sec) [s] | average sweetness corresponding to sucrose ([3]; panel of six, SD 0.55% sucrose) | heat stability [4] | solubility in water [5] [mg/mL] | sucrose equivalent sweet taste ([6]; pH 2.0) [% sucrose] | sucrose equivalent sweet taste ([6]; pH 3.0) [% sucrose] | sucrose equivalent sweet taste ([6]; pH 4.0) [% sucrose] | sucrose equivalent sweet taste ([6]; pH 5.0) [% sucrose] | sucrose equivalent sweet taste ([6]; pH 7.0) [% sucrose] | sucrose equivalent sweet taste ([6]; pH 9.0) [% sucrose] |
| --- | --- | --- | --- | --- | --- | --- | --- | --- | --- | --- | --- | --- | --- | --- | --- | --- |
| 53-amino acid form: Natural brazzein form lacking the N-terminal glutamine or pyroglutamate; amino acids 2 to 54 of SEQ ID NO: 2 (QFTTILSIGITVFGLANTGAFAAPQPVPEAYAVSDPEAHPDDFAGMDANQLQK) | twice as sweet |  |  |  |  |  |  |  |  |  |  |  |  |  |  |  |
| brazzein: Sweet protein of Pentadiplandra brazzeana Baillon or a recombinant form; tested batch secreted from Aspergillus oryzae (SEQ ID NO: 2) (protein) MQFTTILSIGITVFGLANTGAFAAPQPVPEAYAVSDPEAHPDDFAGMDANQLQKREDKCKKVYENYPVSKCQLANQCNYDCKLDKHARSGECFYDEKRNLQCICDYCEY |  | 930 | 7 | 12.7 | almost removed | 510 | 1.5 | 2.57 % (w/v) sucrose | can withstand heat | > 50 | 6.0 | 6.0 | 4.3 | 6.3 | 5.0 | 2.7 |
